Measurements: the supplement of paper PMC9112550, “Optimization of the antimicrobial peptide Bac7 by deep mutational scanning” (BMC Biology, 2022)

System: Escherichia coli TOP10
Test: shrunken log2 fold change of peptide-encoding DNA abundance (4.5 h post-induction vs induction); higher = less antimicrobial activity (less host growth inhibition)
Conditions: time post-induction: 4.5 h; library: site-saturation at positions 5, 18, 19, 20
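Also: peptides expressed intracellularly from a pBAD plasmid library in pooled LB shake-flask culture, induced with 0.3% L-arabinose, DNA abundance read by NGS, three biological replicates, DESeq2 with apeglm shrinkage.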

Sequence | shrunken log2 fold change
RRIRGRPPRLPRPRPRPWGTPRP | 0.0721
RRIRGRPPRLPRPRPRPFEWPRP | -0.127
RRIRDRPPRLPRPRPRPIWHPRP | 0.144
RRIRFRPPRLPRPRPRPVGMPRP | 0.348
RRIRWRPPRLPRPRPRPFTVPRP | -0.512
RRIRDRPPRLPRPRPRPKLNPRP | 0.0523
RRIRERPPRLPRPRPRPMLHPRP | -0.542
RRIRHRPPRLPRPRPRPYWQPRP | -0.0678
RRIRPRPPRLPRPRPRPCTEPRP | 0.0737
RRIRVRPPRLPRPRPRPVCRPRP | -0.0404
RRIRKRPPRLPRPRPRPEIYPRP | -0.00723
RRIRSRPPRLPRPRPRPCSDPRP | 0.21
RRIRYRPPRLPRPRPRPMHEPRP | -0.405
RRIRFRPPRLPRPRPRPAETPRP | 0.0238
RRIRPRPPRLPRPRPRPFLRPRP | -0.327
RRIRERPPRLPRPRPRPCMDPRP | -0.151
RRIRTRPPRLPRPRPRPLGFPRP | 0.046
RRIRTRPPRLPRPRPRPFIPPRP | -0.312
RRIRLRPPRLPRPRPRPCDKPRP | -0.304
RRIRVRPPRLPRPRPRPKQYPRP | -0.558
RRIRKRPPRLPRPRPRPPAPPRP | 1.14
RRIRVRPPRLPRPRPRPPTVPRP | 0.167
RRIRCRPPRLPRPRPRPCTQPRP | -0.887
RRIRQRPPRLPRPRPRPHFFPRP | -0.0162
RRIRVRPPRLPRPRPRPDWEPRP | 0.00682

Sequence | shrunken log2 fold change
RRIRYRPPRLPRPRPRPVDWPRP | 0.145
RRIRARPPRLPRPRPRPAMKPRP | 0.0417
RRIRARPPRLPRPRPRPEEPPRP | 1.24
RRIRGRPPRLPRPRPRPKTYPRP | 0.23
RRIRARPPRLPRPRPRPHGVPRP | 0.0905
RRIRMRPPRLPRPRPRPPGCPRP | 0.451
RRIRRRPPRLPRPRPRPVSWPRP | 0.849
RRIRARPPRLPRPRPRPLKNPRP | -0.127
RRIRCRPPRLPRPRPRPICGPRP | 0.289
RRIRIRPPRLPRPRPRPPDAPRP | 0.5
RRIRYRPPRLPRPRPRPDKKPRP | -0.0333
RRIRERPPRLPRPRPRPPTDPRP | -0.0968
RRIRTRPPRLPRPRPRPRQDPRP | -0.144
RRIRSRPPRLPRPRPRPGMKPRP | -0.0636
RRIRSRPPRLPRPRPRPYGMPRP | -0.0661
RRIRYRPPRLPRPRPRPMVAPRP | 0.133
RRIRIRPPRLPRPRPRPTCWPRP | 0.151
RRIRGRPPRLPRPRPRPSFVPRP | 0.0328
RRIRYRPPRLPRPRPRPEYPPRP | -0.01
RRIRIRPPRLPRPRPRPMGKPRP | -0.0139
RRIRTRPPRLPRPRPRPCAFPRP | -0.0344
RRIRDRPPRLPRPRPRPAAEPRP | 1.25
RRIRLRPPRLPRPRPRPHDTPRP | -0.18
RRIRFRPPRLPRPRPRPRYDPRP | -0.408
RRIRWRPPRLPRPRPRPYPYPRP | 0.0754
